20 molecules from US20240116985A1 (published 2024) can be followed below.

For orientation: EC50 means the concentration at which the effect is half-maximal.

Starred links: 1 amine or outer side, 2 acyl side, 3 side chain; linkers in the order of their positions; H or OH if unused. Positions of bridges follow the written chain, without caps; N, C: chain ends. Non-standard residues stand in square brackets, D forms with d. Primed or numbered codes have the meaning given here. B5(17) = 2,2-bis(4-pentenyl)glycine = 2-amino-2-(pent-4-en-1-yl)hept-6-enoic acid, stitching residue, C=CCCCC(CCCC=C)(N[*:1])C(=O)[*:2]; B5(4) = 2,2-bis(4-pentenyl)glycine = 2-amino-2-(pent-4-en-1-yl)hept-6-enoic acid (stitching residue), C=CCCCC(CCCC=C)(N[*:1])C(=O)[*:2]; B5(5) = 2,2-bis(4-pentenyl)glycine, 2-amino-2-(pent-4-en-1-yl)hept-6-enoic acid (stitching residue), C=CCCCC(CCCC=C)(N[*:1])C(=O)[*:2]; B5(21) = 2-amino-2-(pent-4-en-1-yl)hept-6-enoic acid, bis(4-pentenyl)glycine (stitching residue), C=CCCCC(CCCC=C)(N[*:1])C(=O)[*:2]; (NHCyBu)AsnR = N4-cyclobutyl-L-asparagine, O=C(C[C@H](N[*:1])C(=O)[*:2])NC1CCC1; (NHCyPr)AsnR = N4-cyclopropyl-L-asparagine, O=C(C[C@H](N[*:1])C(=O)[*:2])NC1CC1; (NHnPr)AsnR = N4-propyl-L-asparagine, CCCNC(=O)C[C@H](N[*:1])C(=O)[*:2]; (NHMe)AsnR = N4-methyl-L-asparagine, CNC(=O)C[C@H](N[*:1])C(=O)[*:2]; TOMe = O-methyl-L-threonine, CO[C@H](C)[C@H](N[*:1])C(=O)[*:2]; Bta = N[C@@H](Cc1csc2ccccc12)C(=O)O; αAllylPro = C=CC[C@@]1(C(=O)O)CCCN1; S8 = C=CCCCCCC[C@](C)(N)C(=O)O

T1: full-length beta-Catenin (Uniprot ID P35222) (Homo sapiens (Human), UniProt P35222 1-781)
T1 construct: also called bCat; B-Catenin
T1 sequence: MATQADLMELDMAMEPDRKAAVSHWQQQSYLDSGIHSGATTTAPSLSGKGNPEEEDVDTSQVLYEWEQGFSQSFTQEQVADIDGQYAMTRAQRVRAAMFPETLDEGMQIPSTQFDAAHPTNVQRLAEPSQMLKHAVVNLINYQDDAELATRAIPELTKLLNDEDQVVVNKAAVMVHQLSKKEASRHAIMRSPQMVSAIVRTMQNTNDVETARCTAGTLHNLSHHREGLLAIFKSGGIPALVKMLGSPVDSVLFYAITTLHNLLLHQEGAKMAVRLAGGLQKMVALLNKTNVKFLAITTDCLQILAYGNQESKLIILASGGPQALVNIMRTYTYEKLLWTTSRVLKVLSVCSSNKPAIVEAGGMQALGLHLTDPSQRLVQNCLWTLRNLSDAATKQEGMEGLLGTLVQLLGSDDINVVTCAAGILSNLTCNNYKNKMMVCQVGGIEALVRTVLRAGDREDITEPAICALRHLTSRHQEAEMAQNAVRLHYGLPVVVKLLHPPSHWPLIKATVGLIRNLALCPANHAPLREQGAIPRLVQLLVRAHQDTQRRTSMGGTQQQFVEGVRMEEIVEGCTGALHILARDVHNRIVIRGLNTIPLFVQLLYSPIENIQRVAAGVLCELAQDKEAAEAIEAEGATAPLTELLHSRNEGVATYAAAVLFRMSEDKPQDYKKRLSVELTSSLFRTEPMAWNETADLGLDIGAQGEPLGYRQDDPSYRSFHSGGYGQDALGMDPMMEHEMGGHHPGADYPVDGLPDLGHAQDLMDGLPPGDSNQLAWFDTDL

B1: I-542 (peptide)
peptide: XDTXDEAAFQXFXQ
modifications: not fully specified; Ac-PL3-Asp-TOMe-B5-Asp-Glu-Ala-Ala-Phe-Gln-S8-Phe-BztA-Gln-NH2; N-terminal acetyl, C-terminal amide; non-natural: PL3(1), TOMe(3), B5(4), S8(11), BztA(13); staples PL3(1)-B5(4) and B5(4)-S8(11)
B2: I-558 (peptide)
peptide: XDLXDDAAFQXFXQ
modifications: not fully specified; Ac-PL3-Asp-Leu-B5-Asp-Asp-Ala-Ala-Phe-Gln-S8-Phe-BztA-Gln-NH2; N-terminal acetyl, C-terminal amide; non-natural: PL3(1), B5(4), S8(11), BztA(13); staples PL3(1)-B5(4) and B5(4)-S8(11)
B3: I-553 (peptide)
peptide: XDIXDDAAFNXFXH
modifications: not fully specified; Ac-PL3-Asp-Ile-B5-Asp-Asp-Ala-Ala-Phe-Asn-S8-2OMeF-BztA-His-NH2; N-terminal acetyl, C-terminal amide; non-natural: PL3(1), B5(4), S8(11), 2OMeF(12), BztA(13); staples PL3(1)-B5(4) and B5(4)-S8(11)
B4: I-554 (peptide)
peptide: XDIXDDAAFNXFXH
modifications: not fully specified; Ac-PL3-Asp-Ile-B5-Asp-Asp-Ala-Ala-Phe-Asn-S8-2OMeF-BztA-His-NH2; N-terminal acetyl, C-terminal amide; non-natural: PL3(1), B5(4), S8(11), 2OMeF(12), BztA(13); staples PL3(1)-B5(4) and B5(4)-S8(11)
B5: I-561 (peptide)
peptide: XDLXDDAAFQXFXH
modifications: not fully specified; Ac-PL3-Asp-Leu-B5-Asp-Asp-Ala-Ala-Phe-Gln-S8-Phe-BztA-His-NH2; N-terminal acetyl, C-terminal amide; non-natural: PL3(1), B5(4), S8(11), BztA(13); staples PL3(1)-B5(4) and B5(4)-S8(11)
B6: I-565 (peptide)
peptide: XDLXDDAAFNXFXH
modifications: not fully specified; Ac-PL3-Asp-Leu-B5-Asp-Asp-Ala-Ala-Phe-Asn-S8-Phe-BztA-His-NH2; N-terminal acetyl, C-terminal amide; non-natural: PL3(1), B5(4), S8(11), BztA(13); staples PL3(1)-B5(4) and B5(4)-S8(11)
B7: I-559 (peptide)
peptide: XDLXDDAAFQXFXQ
modifications: not fully specified; Ac-PL3-Asp-Leu-B5-Asp-Asp-Ala-Ala-Phe-Gln-S8-Phe-BztA-Gln-NH2; N-terminal acetyl, C-terminal amide; non-natural: PL3(1), B5(4), S8(11), BztA(13); staples PL3(1)-B5(4) and B5(4)-S8(11)
B8: I-550 (peptide)
peptide: XDIXDDAAFNXFXQ
modifications: not fully specified; Ac-PL3-Asp-Ile-B5-Asp-Asp-Ala-Ala-Phe-Asn-S8-2OMeF-BztA-Gln-NH2; N-terminal acetyl, C-terminal amide; non-natural: PL3(1), B5(4), S8(11), 2OMeF(12), BztA(13); staples PL3(1)-B5(4) and B5(4)-S8(11)
B9: I-566 (peptide)
peptide: XDVXDDAAFNXFXQ
modifications: not fully specified; Ac-PL3-Asp-Val-B5-Asp-Asp-Ala-Ala-Phe-Asn-S8-Phe-BztA-Gln-NH2; N-terminal acetyl, C-terminal amide; non-natural: PL3(1), B5(4), S8(11), BztA(13); staples PL3(1)-B5(4) and B5(4)-S8(11)
B10: I-549 (peptide)
peptide: XDIXDDAAFNXFXQ
modifications: not fully specified; Ac-PL3-Asp-Ile-B5-Asp-Asp-Ala-Ala-Phe-Asn-S8-2OMeF-BztA-Gln-NH2; N-terminal acetyl, C-terminal amide; non-natural: PL3(1), B5(4), S8(11), 2OMeF(12), BztA(13); staples PL3(1)-B5(4) and B5(4)-S8(11)

The test concerns the target T1, full-length beta-Catenin (Uniprot ID …). As to the kind of experiment: fluorescence polarization competition; displacement of 5FAM-TCF4(10-53) from full-length beta-catenin. The protocol:
The plate was incubated protected from light for 60 minutes at 20° C. prior to read. Reads were performed on a CLARIOstar plate reader (BMG Labtech) in duplicate, and data were fitted to a 1:1 binding model with hill slope using an in-house script. All provided concentrations are final concentrations.
(Polarisation of emitted light reports the rotation of a fluorescent probe.)
In the case of B1, a half-maximal effect (EC50) was put at 109 nM.

For the molecule Ac-[αAllylPro]DA[B5(21)][(NHnPr)AsnR]DAAFV[S8]F[Bta]Q-NH2 (staple 1-4, 4-11, Stapled (stitched) peptide composition) [I-537], the half-maximal effective concentration (EC50) worked out at 5000 nM.

On to Ac-[αAllylPro]DA[B5(21)][(NHCyBu)AsnR]DAAFV[S8]F[Bta]Q-NH2 (staple 1-4, 4-11, Stapled (stitched) peptide composition) [I-539], for which a half-maximal effect (EC50) was put at 5000 nM.

Take Ac-[αAllylPro]D[TOMe][B5(21)]DEAAFQ[S8]F[Bta]Q-NH2 (staple 1-4, 4-11) [I-541]: the half-maximal effective concentration (EC50) was determined as 180 nM.

As for Ac-[αAllylPro]DL[B5(5)]DDAAFN[S8]F[Bta]Q-NH2 (staple 1-4, 4-11) [I-562], the EC50 was 51 nM.

Take Ac-[αAllylPro]DI[B5(17)]DEAAFN[S8]F[Bta]Q-NH2 (staple 1-4, 4-11, Stapled (stitched) peptide composition) [I-557]: a half-maximal response (EC50) required 35 nM.

The molecule Ac-[αAllylPro]DL[B5(5)]DDAAFN[S8]F[Bta]H-NH2 (staple 1-4, 4-11) [I-564] returned an EC50 of 36 nM.

As to B2, a half-maximal response (EC50) required 56 nM.

B3 had an EC50 of 61 nM.

As to B4, it took 27.5 nM to reach a half-maximal effect (EC50).

With B5, the EC50 turned out to be 34 nM.

In turn, B6 gave an EC50 of 13 nM.

On to B7, for which the EC50 came out at 43 nM.

With Ac-[αAllylPro]DL[B5(5)]DDAAFQ[S8]F[Bta]H-NH2 (staple 1-4, 4-11) [I-560], the EC50 was 81 nM.

The molecule B8 came in with an EC50 of 30 nM.

B9 showed an EC50 of 76 nM.

For the molecule Ac-[αAllylPro]DL[B5(4)]DEAAFN[S8]F[Bta]H-NH2 (staple 1-4, 4-11, Stapled (stitched) peptide composition) [I-543], the EC50 came out at 32 nM.

B10: the EC50 came to 71 nM.

Consider Ac-[αAllylPro]DA[B5(21)][(NHCyPr)AsnR]DAAFV[S8]F[Bta]Q-NH2 (staple 1-4, 4-11, Stapled (stitched) peptide composition) [I-538], for which the EC50 was determined as 5000 nM.

Ac-[αAllylPro]DA[B5(21)][(NHMe)AsnR]DAAFV[S8]F[Bta]Q-NH2 (staple 1-4, 4-11, Stapled (stitched) peptide composition) [I-540] displayed a concentration for a half-maximal effect (EC50) of 5000 nM.
